Marks after values point to notes of the source that are not given here.
Assays:
CIMPR [1] = target: T1, CIMPR (Homo sapiens, UniProt P11717); test: CIMPR affinity chromatography; assay type: binding; details: CIMPR affinity column; fraction of total enzyme by GAA activity
Excerpt: Multiple batches of the rhGAA according to the invention were produced in shake flasks and in perfusion bioreactors using CHO cell line GA-ATB200, the product of which is referred to as “ATB200.” Weak anion exchange (“WAX”) liquid chromatography was used to fractionate ATB200 rhGAA according to terminal phosphate and sialic acid. Elution profiles were generated by eluting the ERT with increasing amount of salt. The profiles were monitored by UV (A280 nm).
To evaluate the ability of the conventional rhGAAs in Myozyme® and Lumizyme® to interact with the CIMPR, the two conventional rhGAA preparations were injected onto a CIMPR affinity column (which binds rhGAA having M6P groups) and the flow through collected. The bound material was eluted with a free M6 gradient. Fractions were collected in 96-well plate and GAA activity assayed by 4MU-α-glucosidase substrate. The relative amounts of unbound (flow through) and bound (M6P eluted) rhGAA were determined based on GAA activity and reported as the fraction of total enzyme. […] Indeed, only 27% of the rhGAA in Myozyme® and 22% of the rhGAA in Lumizyme® contained M6P that can be productive to target it to the CIMPR on muscle cells.

[2] = system: normal and Pompe fibroblast cell lines; test: Cellular uptake of rhGAA in fibroblasts; assay type: cell-based; details: for concentration that saturates cellular receptors: 16-hr incubation, internalized GAA by 4MU-α-Glucoside hydrolysis; for uptake efficiency constant (Kuptake): extrapolated from uptake results
Method: The relative cellular uptake of ATB200 and Lumizyme® rhGAA were compared using normal and Pompe fibroblast cell lines. Comparisons involved 5-100 nM of ATB200 according to the invention with 10-500 nM conventional rhGAA product Lumizyme® After 16-hr incubation, external rhGAA was inactivated with TRIS base and cells were washed 3-times with PBS prior to harvest. Internalized GAA measured by 4MU-α-Glucoside hydrolysis and was graphed relative to total cellular protein and the results appear in FIGS. 11A-11C.
ATB200 was also shown to be efficiently internalized into cells. […] ATB200 saturates cellular receptors at about 20 nM, while about 250 nM of Lumizyme® is needed to saturate cellular receptors.

Gaa KO mice [3] = test: Muscle fiber biomarkers LAMP1, LC3, dysferlin; assay type: in vivo
Method: The therapeutic effects of ATB200 and AT2221 were evaluated and compared against those of Alglucosidase alfa in Gaa KO mice. For the study, male Gaa KO (3- to 4-month old) and age-matched wild-type (WT) mice were used. Alglucosidase alfa was administered via bolus tail vein intravenous (IV) injection. In the co-administration regimen, AT2221 was administered via oral gavage (PO) 30 minutes prior to the IV injection of ATB200. Treatment was given biweekly. Treated mice were sacrificed after 14 days from the last administration and various tissues were collected for further analysis. Table 7 summarizes the study design:
Tissue samples were also analyzed for biomarker changes following the methods discussed in: Khanna R, et al. (2012), “The pharmacological chaperone AT2220 increases recombinant human acid α-glucosidase uptake and glycogen reduction in a mouse model of Pompe disease,” Plos One 7(7): e40776; and Khanna. […]
Similarly, intense LC3-positive aggregates in the muscle fibers of untreated Gaa KO mice signify the presence of autophagic zones and autophagy build-up. […] A similar observation was made when the expression of LC3 was assessed using western blot. […]
Dysferlin, a protein involved in membrane repair and whose deficiency/mistrafficking is associated with a number of muscular dystrophies, w as also assessed.

Gaa KO mice [4] = test: Single fiber analysis, LAMP1/LC3 co-immunofluorescence; assay type: in vivo
Excerpt: FIG. 17 depicts co-immunofluorescent staining of LAMP1 (green) (see for example, “B”) and LC3 (red) (see, for example, “A”) in single fibers isolated from the white gastrocnemius of Gaa KO mice treated with a vehicle, alglucosidase alfa, or ATB200. “C” depicts clearance of autophagic debris and absence of enlarged lysosome. A minimum of 30 fibers were examined from each animal.
As a result, a significant portion of muscle fibers analyzed (36-60%) from ATB200-treated mice appeared normal or near-normal.

[5] = Thermostability assay using SYPRO Orange; assay type: physicochemical
Method: The stability of ATB200 in acidic or neutral pH buffers was evaluated in a thermostability assay using SYPRO Orange, as the fluorescence of the dye increases when proteins denature. […] As summarized in Table 6, the addition of AT2221 increased the melting temperature (Tm) of ATB200 by nearly 10° C.

CIMPR [6] = target: T1, CIMPR; test: CIMPR plate binding assay
Method: In addition to having a greater percentage of rhGAA that can bind to the CIMPR, it is important to understand the quality of that interaction. Lumizyme® and ATB200 receptor binding was determined using a CIMPR plate binding assay. Briefly, CIMPR-coated plates were used to capture GAA. Varying concentrations of rhGAA were applied to the immobilized receptor and unbound rhGAA was washed off. The amount of remaining rhGAA was determined by GAA activity. […] For Lumizyme®, there is on average only 10% of molecules having a bis-phosphorylated N-glycan. In contrast, on average every rhGAA molecule in ATB200 has at least one bis-phosphorylated N-glycan.
N-glycan analysis via MALDI-TOF mass spectrometry confirmed that on average each ATB200 molecule contains at least one natural bis-M6P N-glycan structure.

[7] = set-up: species or system human; details: in vivo
Method: Preclinical studies were conducted in Gaa knockout mice to evaluate the pharmacokinetics (PK) and efficiency of glycogen reduction at varying ATB200 enzyme replacement therapy (ERT) and AT2221 chaperone doses. […] Study ATB200-02 (NCT02675465) was then designed as an open-label fixed-sequence, ascending dose, first-in-human, phase 1/2 study to evaluate the safety, tolerability, PK, pharmacodynamics (PD), and efficacy of ATB200 co-administered with AT2221 in patients with Pompe disease. FIGS. 19A-19B present the ATB200-02 study design. Ambulatory patients who have previously received enzyme replacement therapy with alglucosidase alfa are referred to as ambulatory ERT-switch (or ERT-switch ambulatory) patients or Cohort 1 patients. Nonambulatory patients who have previously received enzyme replacement therapy with alglucosidase alfa are referred to as nonambulatory ERT-switch (or ERT-switch nonambulatory) patients or Cohort 2 patients. Ambulatory patients who have not previously received enzyme replacement therapy with alglucosidase alfa are referred to as ERT-naïve (or ERT-naïve ambulatory) patients or Cohort 3 patients. Total GAA protein concentrations in plasma for ATB200 at 5 mg/kg, 10 mg/kg, and 20 mg/kg were determined by validated LC-MS/MS quantification of rhGAA-specific “signature” peptide(s) […] (primary) and T50 (confirmatory) for 11 Cohort 1 patients who completed Stages 1 and 2, as well as for five Cohort 2 patients who completed the PK study in Stage 3. For Stage 1, blood samples for plasma total GAA protein concentration were collected prior to the start of ATB200 infusion and at 1, 2, 3, 3.5, 4, 4.5, 5, 6, 8, 10, 12, and 24 hour(s) after the start of infusion. For Stage 2 and Stage 3, blood samples for plasma total GAA protein concentration were collected prior to the start of infusion and at 1, 2, 3, 3.5, 4, 4.5, 5, 6, 8, 10, 12, and 24 hour(s) after the start of infusion.

[8] = single fibers from white gastrocnemius

T1 sequence (P11717 41-2491, species assumed): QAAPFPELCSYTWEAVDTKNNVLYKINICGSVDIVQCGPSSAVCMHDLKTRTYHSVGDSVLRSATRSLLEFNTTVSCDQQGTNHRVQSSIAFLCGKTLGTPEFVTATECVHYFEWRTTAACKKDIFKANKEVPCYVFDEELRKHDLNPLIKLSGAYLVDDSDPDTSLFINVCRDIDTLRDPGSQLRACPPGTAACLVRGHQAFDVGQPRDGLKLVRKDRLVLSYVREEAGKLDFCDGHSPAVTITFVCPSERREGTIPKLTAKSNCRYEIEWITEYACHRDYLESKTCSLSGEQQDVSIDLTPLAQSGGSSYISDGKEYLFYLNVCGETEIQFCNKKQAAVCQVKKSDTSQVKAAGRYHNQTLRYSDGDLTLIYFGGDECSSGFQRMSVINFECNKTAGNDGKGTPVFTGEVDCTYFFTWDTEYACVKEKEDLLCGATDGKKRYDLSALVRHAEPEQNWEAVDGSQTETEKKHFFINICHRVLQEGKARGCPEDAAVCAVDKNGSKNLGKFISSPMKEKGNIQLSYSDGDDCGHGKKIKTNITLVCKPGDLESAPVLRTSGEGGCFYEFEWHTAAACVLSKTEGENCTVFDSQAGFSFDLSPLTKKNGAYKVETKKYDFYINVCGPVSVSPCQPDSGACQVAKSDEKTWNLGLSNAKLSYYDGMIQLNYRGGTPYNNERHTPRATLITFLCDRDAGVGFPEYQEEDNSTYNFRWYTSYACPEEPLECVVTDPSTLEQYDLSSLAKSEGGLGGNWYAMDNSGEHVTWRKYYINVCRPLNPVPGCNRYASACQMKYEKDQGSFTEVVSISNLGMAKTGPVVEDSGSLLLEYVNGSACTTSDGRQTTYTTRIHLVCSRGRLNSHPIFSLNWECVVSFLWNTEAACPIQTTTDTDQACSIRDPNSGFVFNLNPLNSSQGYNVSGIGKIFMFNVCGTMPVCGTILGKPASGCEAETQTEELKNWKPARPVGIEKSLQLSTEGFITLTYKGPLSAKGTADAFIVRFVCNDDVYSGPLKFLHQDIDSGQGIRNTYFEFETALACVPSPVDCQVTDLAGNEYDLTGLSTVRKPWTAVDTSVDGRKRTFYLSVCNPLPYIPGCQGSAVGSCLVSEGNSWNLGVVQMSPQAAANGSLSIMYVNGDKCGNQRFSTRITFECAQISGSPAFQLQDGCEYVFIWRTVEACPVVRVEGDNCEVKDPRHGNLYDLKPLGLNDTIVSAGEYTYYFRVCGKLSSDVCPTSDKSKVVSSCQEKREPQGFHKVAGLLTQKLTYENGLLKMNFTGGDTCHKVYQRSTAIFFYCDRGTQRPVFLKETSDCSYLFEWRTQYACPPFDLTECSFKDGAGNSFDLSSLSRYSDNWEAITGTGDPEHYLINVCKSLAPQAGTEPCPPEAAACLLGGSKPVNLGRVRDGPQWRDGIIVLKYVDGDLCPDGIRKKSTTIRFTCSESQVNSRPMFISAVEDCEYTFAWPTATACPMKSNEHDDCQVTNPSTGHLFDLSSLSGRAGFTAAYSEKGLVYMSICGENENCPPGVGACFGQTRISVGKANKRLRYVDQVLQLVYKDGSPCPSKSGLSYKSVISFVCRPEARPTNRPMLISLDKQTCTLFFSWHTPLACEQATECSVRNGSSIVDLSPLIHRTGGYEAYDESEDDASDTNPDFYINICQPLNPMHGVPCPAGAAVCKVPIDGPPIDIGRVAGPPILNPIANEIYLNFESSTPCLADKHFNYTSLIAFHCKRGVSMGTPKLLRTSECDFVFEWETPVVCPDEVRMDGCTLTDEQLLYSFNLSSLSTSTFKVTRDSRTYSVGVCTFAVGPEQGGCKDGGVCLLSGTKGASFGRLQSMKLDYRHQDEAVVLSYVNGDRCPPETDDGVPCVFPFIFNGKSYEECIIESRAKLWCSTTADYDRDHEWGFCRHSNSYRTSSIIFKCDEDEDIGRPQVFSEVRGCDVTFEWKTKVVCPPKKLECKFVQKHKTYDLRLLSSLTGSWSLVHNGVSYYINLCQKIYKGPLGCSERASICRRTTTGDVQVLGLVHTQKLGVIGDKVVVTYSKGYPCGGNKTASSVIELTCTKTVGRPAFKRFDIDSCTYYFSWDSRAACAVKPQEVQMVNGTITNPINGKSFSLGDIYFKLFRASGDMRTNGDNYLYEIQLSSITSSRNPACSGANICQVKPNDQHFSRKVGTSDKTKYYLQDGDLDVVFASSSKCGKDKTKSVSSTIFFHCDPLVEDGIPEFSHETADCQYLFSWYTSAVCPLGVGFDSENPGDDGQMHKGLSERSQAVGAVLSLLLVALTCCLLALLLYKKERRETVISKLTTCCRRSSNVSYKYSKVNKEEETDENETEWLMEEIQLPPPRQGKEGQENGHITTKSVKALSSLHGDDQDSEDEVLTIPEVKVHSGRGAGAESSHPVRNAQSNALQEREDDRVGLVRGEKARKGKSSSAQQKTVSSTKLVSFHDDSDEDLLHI

Which “rhGAA that binds to the CIMPR” value (CIMPR [1]) does the source give for “Lumizyme®: conventional rhGAA product containing alglucosidase alfa, marketed by Genzyme [reference compound]” here?
The value was 22%.

And the “rhGAA that did not bind to the CIMPR” value (CIMPR [1])?
Its value is 78%.

And the “concentration that saturates cellular receptors” value [2]?
The value was “about 250 nM”.

And the “uptake efficiency constant (Kuptake)” value [2]?
Its value is 56 nM.

What does the source list for “[199-arginine,223-histidine]prepro-α-glucosidase (human) [alglucosidase alfa, reference compound]”?
effect on autophagy (Gaa KO mice [3]): modest; Fibers with Autophagy Buildup (Gaa KO mice [4]; [8]): >90%; Fibers with Normal or Near-normal Appearance (Gaa KO mice [4]; [8]): <10%

For “Myozyme®: conventional rhGAA product containing alglucosidase alfa, marketed by Genzyme”, which “rhGAA that binds to the CIMPR” value (CIMPR [1]) is on record?
Its value is 27%.

What about the “rhGAA that did not bind to the CIMPR” value (CIMPR [1]) of the same compound?
Its value is 73%.

What about the “lysosome size and autophagic buildup compared to vehicle-treated mice” value (Gaa KO mice [4]; single fibers) of the same compound?
Its value is “did not show any significant difference”.

For CCCCN1C[C@H](O)[C@@H](O)[C@H](O)[C@H]1CO [AT2221, (2R,3R,4R,5S)-1-butyl-2-(hydroxymethyl)piperidine-3,4,5-triol, reference compound], which “stabilization of ATB200” value ([5]; pH 7.4) is on record?
The value was “stabilized ATB200 at pH 7.4 in a concentration-dependent manner”.

With “ATB200: rhGAA with a high content of N-glycans bearing mono-M6P and bis-M6P, produced from a GA-ATB200 CHO cell line” as the compound, how does the “binding to CIMPR compared with Lumizyme” value (CIMPR [6]; CIMPR-coated plates, varying rhGAA concentrations) read?
Its value is “bound to CIMPR significantly better than Lumizyme®”.

And the Kd (CIMPR [6]; M6P receptor plate binding assays, read-out: Ku, high-affinity binding to CIMPR)?
Its Kd is 2 to 4 nM.

And the “concentration that saturates cellular receptors” value [2]?
Its value is “about 20 nM”.

What about the “internalization into normal and Pompe fibroblast cells” value ([2]; compared with Lumizyme) of the same compound?
Its value is “internalized to a greater degree than the conventional rhGAA product Lumizyme®”.

What about the “uptake efficiency constant (Kuptake)” value [2] of the same compound?
The value was 2-3 nm.

And the Tm ([5]; pH 5.2)?
Its Tm is 67.3 °C.

And the Tm ([5]; pH 7.4)?
Its Tm is 56.2 °C.

What about the “increase of melting temperature (Tm) on addition of AT2221” value ([5]; pH 7.4) of the same compound?
The value was about 10 °C.

And the Tm ([5]; pH 7.4 + 10 μM AT2221)?
Its Tm is 61.6 °C.

What about the Tm ([5]; pH 7.4 + 30 μM AT2221) of the same compound?
Its Tm is 62.9 °C.

What about the Tm ([5]; pH 7.4 + 100 μM AT2221) of the same compound?
The Tm was 66.0 °C.

And the “area with autophagic buildup” value (Gaa KO mice [4]; single fibers)?
The value was “reduced to various degrees”.

And the “Fibers with Autophagy Buildup” value (Gaa KO mice [4]; [8])?
Its value is 40-64%*.

What about the “increase in distribution half-life (α-phase)” value ([7]; human) of the same compound?
Its value is 40%.

What about the “increase in partial AUC from time to maximum plasma concentration to 24 hours post-dose” value ([7]; human) of the same compound?
The value was 42.2%.

And the “AUC ratio, signature peptide T50 vs T09” value [7]?
Its value is 1.00.

And the “dose proportionality of ATB200 levels” value [7]?
The value was “slightly greater-than-dose proportional”.

And the “plasma total GAA protein exposure, ERT-naive (Cohort 3) vs ERT-switch (Cohort 1)” value [7]?
The value was “no statistically significant difference”.

From patent publication US12246062B2, “Recombinant human acid alpha-glucosidase” (Amicus Therapeutics, Inc., priority 2017, dated 2025)
